Source: the MegaScale stability set (Tsuboyama et al. 2023)

B1: 5KPH (parent)
chain: EEKRQVKQVAKEKLLEQSPNSKVQVRRVQKQGNTIRVELELRTNGKKENYTVEVERQGNTWTVKRITRT

Variants of: B1
Assay: folding stability dG (cDNA display proteolysis); higher = more stable
Settings: PBS, room temperature

Variant | folding stability dG [kcal/mol]
EEKRQVKQVAKEKLLEQSPNSKVQVRRVQKQGNTIRVELELRTNGKKENYTVEYERQGNTWTVKRITRT [V54Y] | 2.94
EEKRQVKQVAKEKLLEQSPNSKVQVRRVQKQGNTIRVELELRTNGKKENYTVETERQGNTWTVKRITRT [V54T] | 2.23
EEKRQVKQVAKEKLLEQSPNSKVQVRRVQKQGNTIRVELELRTNGKKENYTVESERQGNTWTVKRITRT [V54S] | 1.63
EEKRQVKQVAKEKLLEQSPNSKVQVRRVQKQGNTIRVELELRTNGKKENYTVEWERQGNTWTVKRITRT [V54W] | 2.75
EEKRQVKQVAKEKLLEQSPNSKVQVRRVQKQGNTIRVELELRTNGKKENYTVEVEHQGNTWTVKRITRT [R56H] | 3.38
EEKRQVKQVAKEKLLEQSPNSKVQVRRVQKQGNTIRVELELRTNGKKENYTVEVEDQGNTWTVKRITRT [R56D] | 2.42
EEKRQVKQVAKEKLLEQSPNSKVQVRRVQKQGNTIRVELELRTNGKKENYTVEVESQGNTWTVKRITRT [R56S] | 3.26
EEKRQVKQVAKEKLLEQSPNSKVQVRRVQKQGNTIRVELELRTNGKKENYTVEVEKQGNTWTVKRITRT [R56K] | 4.11
EEKRQVKQVAKEKLLEQSPNSKVQVRRVQKQGNTIRVELELRTNGKKENYTVEVEYQGNTWTVKRITRT [R56Y] | 3.72
EEKRQVKQVAKEKLLEQSPNSKVQVRRVQKQGNTIRVELELRTNGKKENYTVEVEFQGNTWTVKRITRT [R56F] | 3.83
EEKRQVKQVAKEKLLEQSPNSKVQVRRVQKQGNTIRVELELRTNGKKENYTVEVEEQGNTWTVKRITRT [R56E] | 2.88
EEKRQVKQVAKEKLLEQSPNSKVQVRRVQKQGNTIRVELELRTNGKKENYTVEVEMQGNTWTVKRITRT [R56M] | 3.61
EEKRQVKQVAKEKLLEQSPNSKVQVRRVQKQGNTIRVELELRTNGKKENYTVEVEPQGNTWTVKRITRT [R56P] | 2.93
EEKRQVKQVAKEKLLEQSPNSKVQVRRVQKQGNTIRVELELRTNGKKENYTVEVEAQGNTWTVKRITRT [R56A] | 3.25
EEKRQVKQVAKEKLLEQSPNSKVQVRRVQKQGNTIRVELELRTNGKKENYTVEVEWQGNTWTVKRITRT [R56W] | 4.17
EEKRQVKQVAKEKLLEQSPNSKVQVRRVQKQGNTIRVELELRTNGKKENYTVEVECQGNTWTVKRITRT [R56C] | 3.59
EEKRQVKQVAKEKLLEQSPNSKVQVRRVQKQGNTIRVELELRTNGKKENYTVEVEIQGNTWTVKRITRT [R56I] | 3.29
EEKRQVKQVAKEKLLEQSPNSKVQVRRVQKQGNTIRVELELRTNGKKENYTVEVEQQGNTWTVKRITRT [R56Q] | 3.51
EEKRQVKQVAKEKLLEQSPNSKVQVRRVQKQGNTIRVELELRTNGKKENYTVEVETQGNTWTVKRITRT [R56T] | 2.83
EEKRQVKQVAKEKLLEQSPNSKVQVRRVQKQGNTIRVELELRTNGKKENYTVEVEGQGNTWTVKRITRT [R56G] | 3.19

Variant | folding stability dG [kcal/mol]
EEKRQVKQVAKEKLLEQSPNSKVQVRRVQKQGNTIRVELELRTNGKKENYTVEVEVQGNTWTVKRITRT [R56V] | 3.24
EEKRQVKQVAKEKLLEQSPNSKVQVRRVQKQGNTIRVELELRTNGKKENYTVEVELQGNTWTVKRITRT [R56L] | 3.84
EEKRQVKQVAKEKLLEQSPNSKVQVRRVQKQGNTIRVELELRTNGKKENYTVEVENQGNTWTVKRITRT [R56N] | 2.97
EEKRQVKQVAKEKLLEQSPNSKVQVRRVQKQGNTIRVELELRTNGKKENYTVEVERQMNTWTVKRITRT [G58M] | 3.24
EEKRQVKQVAKEKLLEQSPNSKVQVRRVQKQGNTIRVELELRTNGKKENYTVEVERQKNTWTVKRITRT [G58K] | 3.4
EEKRQVKQVAKEKLLEQSPNSKVQVRRVQKQGNTIRVELELRTNGKKENYTVEVERQANTWTVKRITRT [G58A] | 3.33
EEKRQVKQVAKEKLLEQSPNSKVQVRRVQKQGNTIRVELELRTNGKKENYTVEVERQENTWTVKRITRT [G58E] | 3.7
EEKRQVKQVAKEKLLEQSPNSKVQVRRVQKQGNTIRVELELRTNGKKENYTVEVERQNNTWTVKRITRT [G58N] | 3.7
EEKRQVKQVAKEKLLEQSPNSKVQVRRVQKQGNTIRVELELRTNGKKENYTVEVERQTNTWTVKRITRT [G58T] | 2.84
EEKRQVKQVAKEKLLEQSPNSKVQVRRVQKQGNTIRVELELRTNGKKENYTVEVERQCNTWTVKRITRT [G58C] | 3.16
EEKRQVKQVAKEKLLEQSPNSKVQVRRVQKQGNTIRVELELRTNGKKENYTVEVERQSNTWTVKRITRT [G58S] | 3.36
EEKRQVKQVAKEKLLEQSPNSKVQVRRVQKQGNTIRVELELRTNGKKENYTVEVERQQNTWTVKRITRT [G58Q] | 3.5
EEKRQVKQVAKEKLLEQSPNSKVQVRRVQKQGNTIRVELELRTNGKKENYTVEVERQFNTWTVKRITRT [G58F] | 3.43
EEKRQVKQVAKEKLLEQSPNSKVQVRRVQKQGNTIRVELELRTNGKKENYTVEVERQHNTWTVKRITRT [G58H] | 3.4
EEKRQVKQVAKEKLLEQSPNSKVQVRRVQKQGNTIRVELELRTNGKKENYTVEVERQRNTWTVKRITRT [G58R] | 2.97
EEKRQVKQVAKEKLLEQSPNSKVQVRRVQKQGNTIRVELELRTNGKKENYTVEVERQPNTWTVKRITRT [G58P] | 2.25
EEKRQVKQVAKEKLLEQSPNSKVQVRRVQKQGNTIRVELELRTNGKKENYTVEVERQVNTWTVKRITRT [G58V] | 3.02
EEKRQVKQVAKEKLLEQSPNSKVQVRRVQKQGNTIRVELELRTNGKKENYTVEVERQLNTWTVKRITRT [G58L] | 3.33
EEKRQVKQVAKEKLLEQSPNSKVQVRRVQKQGNTIRVELELRTNGKKENYTVEVERQINTWTVKRITRT [G58I] | 2.86
